How the values were obtained:
Assay in all cases: IEDB peptide-MHC binding, purified MHC/competitive/radioactivity; filed as Kd, often an IC50 or EC50 that approximates it; ≥ and ≤ were set here for values at or beyond the usual limits of such assays
HLA-A*11:01 = target: HLA-A*11:01
HLA-A*33:01 = target: HLA-A*33:01
HLA-A*03:01 = target: HLA-A*03:01
HLA-A*31:01 = target: HLA-A*31:01
HLA-A*68:01 = target: HLA-A*68:01
HLA-A*02:06 = target: HLA-A*02:06
HLA-A*02:03 = target: HLA-A*02:03
[1] = source organism: Vaccinia virus WR
[2] = source organism: Dengue virus 1 Brazil/97-11/1997
[3] = source organism: SARS coronavirus Tor2
[4] = source organism: Lymphocytic choriomeningitis virus (strain Armstrong)
[5] = source organism: Mammarenavirus lassaense
[6] = source organism: Mammarenavirus brazilense
[7] = source organism: Vaccinia virus Copenhagen
[8] = source organism: Dengue virus 4 Philippines/H241/1956

Sequence | Kd (HLA-A*11:01; [1]) [nM] | Kd (HLA-A*33:01; [1]) [nM] | Kd (HLA-A*03:01; [1]) [nM] | Kd (HLA-A*31:01; [1]) [nM] | Kd (HLA-A*68:01; [1]) [nM] | also measured
ASMGFKVTTR | 0.174 | 532 | 14 | 0.416 | 15.4 | 
LMLVTPSMTM |  |  |  |  |  | Kd (HLA-A*02:06; source organism: Dengue virus 3 Martinique/1243/1999): 974 nM
ALINLVQYR | 3920 | 17400 | 6500 | 137 | 258 | 
NLKYSVIVTV |  |  |  |  |  | Kd (HLA-A*02:03; [2]): 5.6 nM
ILNAHKDGV |  |  |  |  |  | Kd (HLA-A*02:03; source organism: Dengue virus 4 Dominica/814669/1981): 329 nM
SLNSMYTRLR | 1780 | 0.997 | 47.2 | 0.291 | 81.2 | 
TIRHMWSVVY | 3080 | ≥ 70000 | 294 | ≥ 57000 | 2860 | 
LIKFISDNK | 222 | 624 | 151 | 120 | 1.1 | 
ILGGVLHTK | 19.3 | 6160 | 1.92 | 1380 | 558 | 
KTSKTTILSK | 96.4 | ≥ 70000 | 44.4 | 311 | 3960 | 
NQATTKTTFK |  |  |  |  |  | Kd (HLA-A*11:01; [3]): 440 nM; Kd (HLA-A*33:01; [3]): ≥ 26500 nM; Kd (HLA-A*03:01; [3]): 378 nM; Kd (HLA-A*31:01; [3]): 4270 nM; Kd (HLA-A*68:01; [3]): 506 nM
FKMRPMFAV |  |  |  |  |  | Kd (HLA-A*02:06; [2]): 55.5 nM
ASANLAATK |  |  |  |  |  | Kd (HLA-A*11:01; [3]): 14.4 nM; Kd (HLA-A*33:01; [3]): ≥ 77700 nM; Kd (HLA-A*03:01; [3]): 77.1 nM; Kd (HLA-A*31:01; [3]): 1030 nM; Kd (HLA-A*68:01; [3]): 78.3 nM
YANCSSISIK | 115 | 18100 | 452 | 4310 | 51.7 | 
VTLAILTALR |  |  |  |  |  | Kd (HLA-A*11:01; [3]): 149 nM; Kd (HLA-A*33:01; [3]): 310 nM; Kd (HLA-A*03:01; [3]): 218 nM; Kd (HLA-A*31:01; [3]): 13.4 nM; Kd (HLA-A*68:01; [3]): 14.1 nM
AAYYFMKFRR |  |  |  |  |  | Kd (HLA-A*11:01; [3]): 132 nM; Kd (HLA-A*33:01; [3]): 277 nM; Kd (HLA-A*03:01; [3]): 3050 nM; Kd (HLA-A*31:01; [3]): 41 nM; Kd (HLA-A*68:01; [3]): 79.2 nM
IVHSYLKNY | 1230 | ≥ 77700 | ≥ 21600 | ≥ 25500 | ≥ 23800 | 
PVLKAMHDKK | ≥ 24800 | ≥ 70000 | 8510 | ≥ 70000 | ≥ 70200 | 

Sequence | Kd (HLA-A*11:01; [1]) [nM] | Kd (HLA-A*33:01; [1]) [nM] | Kd (HLA-A*03:01; [1]) [nM] | Kd (HLA-A*31:01; [1]) [nM] | Kd (HLA-A*68:01; [1]) [nM] | also measured
ISRTRLYDY | 1410 | 2190 | 176 | 1240 | ≥ 42900 | 
TYLGPLSCK |  |  |  |  |  | Kd (HLA-A*11:01; [4]): 21.3 nM; Kd (HLA-A*33:01; [4]): 154 nM; Kd (HLA-A*03:01; [4]): 165 nM; Kd (HLA-A*31:01; [4]): 1690 nM; Kd (HLA-A*68:01; [4]): 375 nM
LSCTKNTSHH |  |  |  |  |  | Kd (HLA-A*11:01; [5]): ≥ 69700 nM; Kd (HLA-A*33:01; [5]): ≥ 70000 nM; Kd (HLA-A*03:01; [5]): ≥ 70000 nM; Kd (HLA-A*31:01; [5]): ≥ 43100 nM; Kd (HLA-A*68:01; [5]): ≥ 43700 nM
FKVAFSKHYK |  |  |  |  |  | Kd (HLA-A*11:01; [6]): 2140 nM; Kd (HLA-A*33:01; [6]): 3190 nM; Kd (HLA-A*03:01; [6]): 279 nM; Kd (HLA-A*31:01; [6]): 48.3 nM; Kd (HLA-A*68:01; [6]): 582 nM
LSYIYSEIK | 27.3 | 1590 | 26 | 8600 | 252 | 
SLENLDPDNK | 6.89 | ≥ 22400 | 2920 | 17000 | 1360 | 
VINAPIKEFK | 1.31 | 83.8 | 4.87 | 227 | 6.75 | 
IVRTMPNESR | 16100 | 10700 | 241 | 4820 | 401 | 
EFLHYCNSY | ≥ 31600 | 6030 | ≥ 78000 | ≥ 37700 | ≥ 24600 | 
SVLDIISSK |  |  |  |  |  | Kd (HLA-A*11:01; [7]): 6.72 nM; Kd (HLA-A*33:01; [7]): 4410 nM; Kd (HLA-A*03:01; [7]): 23.4 nM; Kd (HLA-A*31:01; [7]): 1670 nM; Kd (HLA-A*68:01; [7]): 184 nM
RQVVNVITTK |  |  |  |  |  | Kd (HLA-A*11:01; [3]): 216 nM; Kd (HLA-A*33:01; [3]): ≥ 39600 nM; Kd (HLA-A*03:01; [3]): 114 nM; Kd (HLA-A*31:01; [3]): 2670 nM; Kd (HLA-A*68:01; [3]): 305 nM
TLYVKALTK | 23.9 | 15500 | 1.93 | 2920 | 185 | 
MLEGETKLYK | 63.4 | ≥ 70000 | 20.6 | ≥ 50400 | 9180 | 
NIAEYIAGLK | 518 | ≥ 25200 | 132 | ≥ 70000 | 14.5 | 
SLIDLQELGK |  |  |  |  |  | Kd (HLA-A*11:01; [3]): 178 nM; Kd (HLA-A*33:01; [3]): 1400 nM; Kd (HLA-A*03:01; [3]): 183 nM; Kd (HLA-A*31:01; [3]): 75.9 nM; Kd (HLA-A*68:01; [3]): 94.5 nM
RVILAGPIPV |  |  |  |  |  | Kd (HLA-A*02:03; [8]): 8.4 nM; Kd (HLA-A*02:06; [8]): 33.5 nM
EANASAQTK | 2600 | 12500 | 1560 | ≥ 56300 | 27.3 | 
